Experimental data published in patent US11932908B2, “Compositions and methods for diagnosis and treatment of epilepsy” (THE REGENTS OF THE UNIVERSITY OF CALIFORNIA, priority 2004, dated 2024).
“Also recorded” adds a separate entry of the source. Where two headings read alike, the source gives them in different places.

B1: D210N: EFHC1 protein with JME missense mutation D210N (Asp210Asn) (protein)
chain: MVSNPVHGLPFLPGTSFKDSTKTAFHRSQTLSYRNGYAIVRRPTVGIGGDRLQFNQLSQAELDELASKAPVLTYGQPKQAPPADFIPAHVAFDKKVLKFDAYFQEDVPMSTEEQYRIRQVNIYYYLEDDSMSVIEPVVENSGILQGKLIKRQRLAKNDRGDHYHWKDLNRGINITIYGKTFRVVDCDQFTQVFLESQGIELNPPEKMALNPYTELRKQPLRKYVTPSDFDQLKQFLTFDKQVLRFYAIWDDTDSMYGECRTYIIHYYLMDDTVEIREVHERNDGRDPFPLLMNRQRVPKVLVENAKNFPQCVLEISDQEVLEWYTAKDFIVGKSLTILGRTFFIYDCDPFTRRYYKEKFGITDLPRIDVSKREPPPVKQELPPYNGFGLVEDSAQNCFTLIPKAPKKDVIKMLVNDNKVLRYLAVLESPIPEDKDRRFVFSYFLATDMISIFEPPVRNSGIIGGKYLGRTKVVKPYSTVDNPVYYGPSDFFIGAVIEVFGHRFIILDTDEYVLKYMESNAAQYSPEALASIQNHVRKREAPAPEAESKQTEKDPGVQELEALIDTIQKQLKDHSCKDNIREAFQIYDKEASGYVDRDMFFKICESLNVPVDDSLVKELIRMCSHGEGKINYYNFVRAFSN
B2: R221H: EFHC1 protein with JME missense mutation R221H (Arg221His) (protein)
chain: MVSNPVHGLPFLPGTSFKDSTKTAFHRSQTLSYRNGYAIVRRPTVGIGGDRLQFNQLSQAELDELASKAPVLTYGQPKQAPPADFIPAHVAFDKKVLKFDAYFQEDVPMSTEEQYRIRQVNIYYYLEDDSMSVIEPVVENSGILQGKLIKRQRLAKNDRGDHYHWKDLNRGINITIYGKTFRVVDCDQFTQVFLESQGIELNPPEKMALDPYTELRKQPLHKYVTPSDFDQLKQFLTFDKQVLRFYAIWDDTDSMYGECRTYIIHYYLMDDTVEIREVHERNDGRDPFPLLMNRQRVPKVLVENAKNFPQCVLEISDQEVLEWYTAKDFIVGKSLTILGRTFFIYDCDPFTRRYYKEKFGITDLPRIDVSKREPPPVKQELPPYNGFGLVEDSAQNCFTLIPKAPKKDVIKMLVNDNKVLRYLAVLESPIPEDKDRRFVFSYFLATDMISIFEPPVRNSGIIGGKYLGRTKVVKPYSTVDNPVYYGPSDFFIGAVIEVFGHRFIILDTDEYVLKYMESNAAQYSPEALASIQNHVRKREAPAPEAESKQTEKDPGVQELEALIDTIQKQLKDHSCKDNIREAFQIYDKEASGYVDRDMFFKICESLNVPVDDSLVKELIRMCSHGEGKINYYNFVRAFSN
B3: D253Y: EFHC1 protein with JME missense mutation D253Y (Asp253Tyr) (protein)
chain: MVSNPVHGLPFLPGTSFKDSTKTAFHRSQTLSYRNGYAIVRRPTVGIGGDRLQFNQLSQAELDELASKAPVLTYGQPKQAPPADFIPAHVAFDKKVLKFDAYFQEDVPMSTEEQYRIRQVNIYYYLEDDSMSVIEPVVENSGILQGKLIKRQRLAKNDRGDHYHWKDLNRGINITIYGKTFRVVDCDQFTQVFLESQGIELNPPEKMALDPYTELRKQPLRKYVTPSDFDQLKQFLTFDKQVLRFYAIWDDTYSMYGECRTYIIHYYLMDDTVEIREVHERNDGRDPFPLLMNRQRVPKVLVENAKNFPQCVLEISDQEVLEWYTAKDFIVGKSLTILGRTFFIYDCDPFTRRYYKEKFGITDLPRIDVSKREPPPVKQELPPYNGFGLVEDSAQNCFTLIPKAPKKDVIKMLVNDNKVLRYLAVLESPIPEDKDRRFVFSYFLATDMISIFEPPVRNSGIIGGKYLGRTKVVKPYSTVDNPVYYGPSDFFIGAVIEVFGHRFIILDTDEYVLKYMESNAAQYSPEALASIQNHVRKREAPAPEAESKQTEKDPGVQELEALIDTIQKQLKDHSCKDNIREAFQIYDKEASGYVDRDMFFKICESLNVPVDDSLVKELIRMCSHGEGKINYYNFVRAFSN

Assays:
JME seizures = conditions: JME patients, cited from earlier work
[1] = cited from earlier work
T type VDCC = conditions: thalamic neurons, cited from earlier work
[2] = test system: mouse hippocampal primary culture neurons; conditions: 24, 36 and 48 hours after transfection; mutants compared to wild-type EFHC1
Protocol: Mouse hippocampal neurons primary culture. Hippocampal neurons were isolated from embryonic day 16 mice and plated at 1-2×10^5 cells per well in 24 well plate containing glass coverslips coated with poly-1-lysine and grown in serum-free NEUROBASAL™ media supplemented with B27, 0.5 mM L-glutamine (Invitrogen).
Transfection and immunostaining of mouse hippocampal neurons. […] Cultures were fixed with 4% paraformaldehyde in PBS 16 and 48 hours after transfection, permeabilized with 0.3% Triton X-100, blocked in 3% normal goat serum in PBS, and treated with mouse monoclonal anti-MAP-2 antibody (1:500; Sigma) and Alexa fluor 594 goat anti-mouse IgG antibody (1:1000; Molecular Probes).
TUNEL assay. […] Forty-eight hours after transfection, neuronal apoptosis was detected using DeadEndTM Fluorometric TUNEL System (Promega). Nuclei were visualized with Hoescht 33342 (Molecular Probes). These cells were also stained with anti-Myc antibody (1:200; Cell Signaling) and Alexa fluor 594 goat anti-rabbit IgG antibody (1:1000). All experiments were carried out in duplicate wells and at least repeated three times. Neuron cells were observed on a confocal microscope (OLYMPUS FLUOVIEW) following 48 hours post transfection.
Cell death analyses with EFHC1 mutants. […] Surviving cell numbers were scored by counting GFP fluorescent-positive cells that attached to dishes. At each counting, detached cells (dead cells) were carefully removed by changing culture medium. Morphologies of cells (cell shape, length and number of neurites, shrinkage, etc.) were not considered for the counting. Surviving cell numbers were scored at 24, 36, and 48 hours after transfection. Analyses were repeated twice by using two independently prepared expression construct DNAs. In total, neurons in seven wells of 24 well plates were counted for each transfection and time point. Experiments were performed in a blinded fashion.

PQ type VDCC (Cav2.1) = target: T1, PQ type VDCC (Cav2.1) (Oryctolagus cuniculus, UniProt P27884); assay: Patch-clamp analyses of HEK cell line with P/Q type VDCCs and wild type EFHC1 or mutant constructs; assay type: cell-based; conditions: for Activation V0.5 (mV): half-maximal voltage of activation; for Activation V0.5 (mV) / Inactivation V0.5 (mV) / Activation k (mV) / Inactivation K (mV): mean ± SEM; for Inactivation V0.5 (mV): half-maximal voltage of inactivation; for inactivation speed of P/Q type VDCC (decelerating effect on calcium inactivation): patch-clamp; for Activation k (mV) / Inactivation K (mV): slope factor
T1 construct: expressed in transfected cells; host or cells: HEK cell line
T1 sequence (P27884 whole entry): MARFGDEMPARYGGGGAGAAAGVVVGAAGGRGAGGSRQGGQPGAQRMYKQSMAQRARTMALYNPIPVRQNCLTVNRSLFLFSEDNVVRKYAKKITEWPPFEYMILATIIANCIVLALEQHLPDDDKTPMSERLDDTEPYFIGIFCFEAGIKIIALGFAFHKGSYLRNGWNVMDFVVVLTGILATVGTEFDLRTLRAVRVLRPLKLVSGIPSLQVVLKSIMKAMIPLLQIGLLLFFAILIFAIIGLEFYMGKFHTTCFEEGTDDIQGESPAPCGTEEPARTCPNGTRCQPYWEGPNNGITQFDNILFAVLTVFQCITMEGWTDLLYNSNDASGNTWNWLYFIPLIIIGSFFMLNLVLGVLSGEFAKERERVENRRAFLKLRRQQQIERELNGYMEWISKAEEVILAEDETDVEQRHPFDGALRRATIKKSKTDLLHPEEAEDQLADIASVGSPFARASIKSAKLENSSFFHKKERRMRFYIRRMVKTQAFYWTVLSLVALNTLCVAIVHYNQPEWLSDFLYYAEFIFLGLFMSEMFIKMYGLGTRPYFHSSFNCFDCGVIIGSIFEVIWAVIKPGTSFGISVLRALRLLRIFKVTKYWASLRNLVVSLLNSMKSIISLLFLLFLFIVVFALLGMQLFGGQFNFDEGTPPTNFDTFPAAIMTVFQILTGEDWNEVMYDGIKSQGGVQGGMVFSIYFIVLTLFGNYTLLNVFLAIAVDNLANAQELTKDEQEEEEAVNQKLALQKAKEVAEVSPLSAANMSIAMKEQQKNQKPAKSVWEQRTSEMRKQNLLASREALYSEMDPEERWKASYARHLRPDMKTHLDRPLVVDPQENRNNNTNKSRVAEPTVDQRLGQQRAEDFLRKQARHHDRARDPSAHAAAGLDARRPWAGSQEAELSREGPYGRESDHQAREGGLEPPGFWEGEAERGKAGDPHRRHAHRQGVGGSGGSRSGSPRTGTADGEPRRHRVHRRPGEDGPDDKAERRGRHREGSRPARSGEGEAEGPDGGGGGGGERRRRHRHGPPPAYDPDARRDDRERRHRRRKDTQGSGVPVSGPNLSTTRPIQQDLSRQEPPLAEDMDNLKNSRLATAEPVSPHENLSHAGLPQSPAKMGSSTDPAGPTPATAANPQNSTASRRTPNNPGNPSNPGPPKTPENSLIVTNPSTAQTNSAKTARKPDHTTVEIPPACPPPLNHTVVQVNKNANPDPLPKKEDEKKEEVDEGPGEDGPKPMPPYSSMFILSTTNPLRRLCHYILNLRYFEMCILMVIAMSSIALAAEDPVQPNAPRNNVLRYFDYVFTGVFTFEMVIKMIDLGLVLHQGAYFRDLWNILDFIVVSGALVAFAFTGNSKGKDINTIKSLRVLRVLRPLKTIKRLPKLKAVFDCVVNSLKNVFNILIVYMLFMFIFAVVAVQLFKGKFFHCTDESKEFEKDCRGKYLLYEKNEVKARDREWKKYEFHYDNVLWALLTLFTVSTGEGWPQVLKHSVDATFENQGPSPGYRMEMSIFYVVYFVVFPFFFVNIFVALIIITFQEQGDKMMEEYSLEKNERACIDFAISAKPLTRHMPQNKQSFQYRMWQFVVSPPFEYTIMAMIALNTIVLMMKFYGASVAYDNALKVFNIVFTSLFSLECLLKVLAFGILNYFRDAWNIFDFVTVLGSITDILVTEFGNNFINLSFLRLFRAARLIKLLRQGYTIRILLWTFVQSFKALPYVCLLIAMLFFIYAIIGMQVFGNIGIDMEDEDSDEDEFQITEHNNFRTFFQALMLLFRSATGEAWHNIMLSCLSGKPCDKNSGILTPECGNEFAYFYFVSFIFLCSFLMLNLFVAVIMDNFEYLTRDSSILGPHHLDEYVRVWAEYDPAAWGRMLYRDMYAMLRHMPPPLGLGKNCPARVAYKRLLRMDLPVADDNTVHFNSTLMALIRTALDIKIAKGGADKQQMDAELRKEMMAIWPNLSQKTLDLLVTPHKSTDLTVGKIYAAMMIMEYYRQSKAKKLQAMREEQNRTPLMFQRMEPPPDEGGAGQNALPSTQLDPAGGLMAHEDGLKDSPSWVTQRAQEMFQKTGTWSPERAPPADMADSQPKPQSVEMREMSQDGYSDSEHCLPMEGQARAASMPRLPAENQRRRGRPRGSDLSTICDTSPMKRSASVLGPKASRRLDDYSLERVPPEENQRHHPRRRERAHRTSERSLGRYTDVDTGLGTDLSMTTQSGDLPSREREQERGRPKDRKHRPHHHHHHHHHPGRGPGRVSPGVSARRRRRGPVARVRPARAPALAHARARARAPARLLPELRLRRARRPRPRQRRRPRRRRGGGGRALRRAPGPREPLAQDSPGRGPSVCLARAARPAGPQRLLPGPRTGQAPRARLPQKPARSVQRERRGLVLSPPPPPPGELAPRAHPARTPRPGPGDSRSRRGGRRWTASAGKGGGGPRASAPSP
T1 sequence (P13806 27-1106 partner): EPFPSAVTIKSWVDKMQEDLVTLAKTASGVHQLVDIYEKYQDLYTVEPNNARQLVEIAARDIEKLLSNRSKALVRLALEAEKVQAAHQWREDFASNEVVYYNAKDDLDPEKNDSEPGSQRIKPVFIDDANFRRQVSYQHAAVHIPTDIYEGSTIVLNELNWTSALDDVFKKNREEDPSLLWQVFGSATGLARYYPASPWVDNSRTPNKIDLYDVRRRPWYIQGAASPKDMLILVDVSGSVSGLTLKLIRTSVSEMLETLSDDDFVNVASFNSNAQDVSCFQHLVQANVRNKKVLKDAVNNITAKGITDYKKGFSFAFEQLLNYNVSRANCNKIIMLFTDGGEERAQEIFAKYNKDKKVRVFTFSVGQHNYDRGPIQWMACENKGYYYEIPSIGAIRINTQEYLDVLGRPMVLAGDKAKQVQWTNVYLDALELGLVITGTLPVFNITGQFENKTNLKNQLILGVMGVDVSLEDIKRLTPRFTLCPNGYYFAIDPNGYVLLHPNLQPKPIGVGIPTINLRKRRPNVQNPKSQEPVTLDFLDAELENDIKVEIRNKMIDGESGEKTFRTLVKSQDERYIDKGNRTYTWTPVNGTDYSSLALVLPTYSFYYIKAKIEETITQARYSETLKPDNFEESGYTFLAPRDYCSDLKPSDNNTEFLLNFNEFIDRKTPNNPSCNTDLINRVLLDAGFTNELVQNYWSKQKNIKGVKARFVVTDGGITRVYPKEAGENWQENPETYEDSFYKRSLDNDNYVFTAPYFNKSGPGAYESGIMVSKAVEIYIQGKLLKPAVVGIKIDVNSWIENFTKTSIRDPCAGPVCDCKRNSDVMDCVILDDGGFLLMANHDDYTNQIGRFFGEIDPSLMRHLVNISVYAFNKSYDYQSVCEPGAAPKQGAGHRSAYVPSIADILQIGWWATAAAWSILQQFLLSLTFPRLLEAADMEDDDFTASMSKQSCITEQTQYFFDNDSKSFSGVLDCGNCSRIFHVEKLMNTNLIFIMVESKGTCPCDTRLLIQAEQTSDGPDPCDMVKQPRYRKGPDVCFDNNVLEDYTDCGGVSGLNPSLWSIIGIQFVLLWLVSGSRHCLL
T1 sequence (P19517 whole entry partner): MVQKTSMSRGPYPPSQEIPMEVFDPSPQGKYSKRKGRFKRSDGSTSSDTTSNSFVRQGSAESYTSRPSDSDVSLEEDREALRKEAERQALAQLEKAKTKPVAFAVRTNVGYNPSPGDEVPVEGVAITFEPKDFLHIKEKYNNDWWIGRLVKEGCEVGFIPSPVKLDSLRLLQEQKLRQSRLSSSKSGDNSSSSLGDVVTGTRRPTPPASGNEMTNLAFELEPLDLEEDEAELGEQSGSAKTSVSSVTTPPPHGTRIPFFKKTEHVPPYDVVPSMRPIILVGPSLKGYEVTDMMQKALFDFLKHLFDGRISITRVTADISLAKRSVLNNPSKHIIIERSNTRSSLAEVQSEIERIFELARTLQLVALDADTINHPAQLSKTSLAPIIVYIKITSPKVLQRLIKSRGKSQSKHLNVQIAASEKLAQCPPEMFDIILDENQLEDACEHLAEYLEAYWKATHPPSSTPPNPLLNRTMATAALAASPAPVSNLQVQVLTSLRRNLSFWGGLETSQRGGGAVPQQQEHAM

| Molecule | effect on JME seizures (JME seizures) | Seizure protecting plasma concentrations in humans [1] [µg/mL] | cell-death effect (GFP-positive surviving cell numbers) [2] | Activation V0.5 (mV) (PQ type VDCC (Cav2.1)) | Inactivation V0.5 (mV) (PQ type VDCC (Cav2.1)) | Activation k (mV) (PQ type VDCC (Cav2.1)) | Inactivation K (mV) (PQ type VDCC (Cav2.1)) | also measured |
| --- | --- | --- | --- | --- | --- | --- | --- | --- |
| NC(=O)N1c2ccccc2C=Cc2ccccc21 [Carbamazepine] | can make seizures worse; also recorded: have no effects on or aggravate JME seizures | 4 to 10 | – | – | – | – | – | absences in JME (JME seizures): make absence appear for the first time; effect on JME seizures (JME seizures; listed as carbamezapine): can make seizures worse |
| CCC1(C)CC(=O)NC1=O (stereo not shown) [Ethosuximide] | no effects; also recorded: have no effects on or aggravate JME seizures | 40 to 100 | – | – | – | – | – | T type VDCC (T type VDCC): reduce; T type VDCC (T type VDCC; listed as ethozuximide): reduces |
| CCC1(c2ccccc2)C(=O)NC(=O)NC1=O [Phenobarbital] | – | 10 to 40 | – | – | – | – | – | – |
| O=C1NC(=O)C(c2ccccc2)(c2ccccc2)N1 [Phenytoin] | can make seizures worse; also recorded: have no effects on or aggravate JME seizures | 10 to 20 | – | – | – | – | – | absences in JME (JME seizures): make absence appear for the first time |
| CCCC(CCC)C(=O)O [Valproate] | – | 40 to 150 | – | – | – | – | – | – |
| CN1C(=O)OC(C)(C)C1=O [trimethadione] | no effects in JME | – | – | – | – | – | – | T type VDCC (T type VDCC): reduce |
| B1 | – | – | significantly reversed | 24.1 ± 1.4 | −9.4 ± 1.4 | 9.08 ± 0.71 | 6.44 ± 0.33 | inactivation speed of P/Q type VDCC (decelerating effect on calcium inactivation) (PQ type VDCC (Cav2.1)): did not significantly affect |
| B2 | – | – | significantly reversed | 17.7 ± 1.9 | −17.0 ± 2.5 | 7.08 ± 0.81 | 7.00 ± 0.27 | inactivation speed of P/Q type VDCC (decelerating effect on calcium inactivation) (PQ type VDCC (Cav2.1)): abolished the decelerating effect |
| B3 | – | – | significantly reversed | 19.7 ± 2.0 | −10.9 ± 1.8 | 7.60 ± 0.51 | 6.08 ± 0.22 | Ca2+ current density of P/Q-type VDCC (Cav2.1) (PQ type VDCC (Cav2.1); cells co-transfected with P/Q-type VDCC and EFHC1 constructs): prominently increased; sustained component of calcium currents (PQ type VDCC (Cav2.1); compared with vector-transfected control P/Q-type-expressing cells): reduced |
